{"source": "patent US20250264455A1", "about": "(HELMHOLTZ ZENTRUM M NCHEN DEUTSCHES FORSCHUNGSZENTRUM F R …, published 2025)", "key": {"QtEnc-SpyTag(003) [1]": {"target": "T1, QtEnc-SpyTag(003) (Bacillus thermotolerans (Quasibacillus …, UniProt A0A0F5HPP7 1-282))", "T1 construct": "Q. thermotolerans encapsulin shell monomer with C-terminal SpyTag003; T=4 shell of 240 subunits; expressed in HEK cells; also called QtEnc decorated with SpyTags", "assay": "TEM and CN-PAGE after co-expression in HEK cells (SpyTag003/SpyCatcher003 isopeptide)"}, "LifeAct-emFPv4": {"target": "T2, LifeAct-emFPv4", "T2 construct": "also called emFPv4 hub", "assay": "Clear Native PAGE of co-expressing HEK293T lysate"}, "QtEnc-SpyTag(003) [2]": {"target": "T1, QtEnc-SpyTag(003)", "assay": "TEM, CN-PAGE shift and Western blot after co-expression in HEK cells (SpyTag003/SpyCatcher003 isopeptide)"}, "[3]": {"target": "the molecule itself", "assay": "native 12% Tris-Glycine gel of purified protein with BODIPY FL C16"}}}
{"binder": "BM3h-SpyCatcher003 (other, Heme domain of cytochrome P450 BM3 fused to SpyCatcher003; also called SpyCatcher-Bm3h) MTIKEMPQPKTFGELKNLPLLNTDKPVQALMKIADELGEIFKFEAPGRVTRYLSSQRLIKEACDESRFDKNLSQALKFVRDFAGDGLFTSWTHEKNWKKAHNILLPSFSQQAMKGYHAMMVDIAVQLVQKWERLNADEHIEVPEDMTRLTLDTIGLCGFNYRFNSFYRDQPHPFITSMVRALDEAMNKLQRANPDDPAYDENKRQFQEDIKVMNDLVDKIIADRKASGEQSDDLLTHMLNGKDPETGEPLDDENIRYQIITFLIAGHETTSGLLSFALYFLVKNPHVLQKAAEEAARVLVDPVPSYKQVKQLKYVGMVLNEALRLWPTAPAFSLYAKEDTVLGGEYPLEKGDELMVLIPQLHRDKTIWGDDVEEFRPERFENPSAIPQHAFKPFGNGQRACIGQQFALHEATLVLGMMLKHFDFEDHTNYELDIKETLTLKPEGFVVKAKSKKIPLPPPPRTGPPPPRVTTLSGLSGEQGPSGDMTTEEDSATHIKFSKRDEDGRELAGATMELRDSSGKTISTWISDGHVKDFYLYPGKYTFVETAAPDGYEVATPIEFTVNEDGQVTVDGEATEGDAHT", "values": [{"measurement": "binding result", "setting": "QtEnc-SpyTag(003) [1]", "value": "binds"}]}
{"binder": "BFabp-αMoon-Tag (other, also called B-Fabp Anti-Moon-Tag) MEVQLVESGGGLVQPGGSLRLSCAASGSISSVDVMSWYRQAPGKQRELVAFITDRGRTNYKVSVKGRFTISRDNSKNMVYLQMNSLKPEDTADYLCRAESRTSWSSPSPLDVWGRGTQVTVSSGGTGGSVEAFCATWKLTNSQNFDEYMKALGVGFATRQVGNVTKPTVIISQEGDKVVIRTLSTFKNTEISFQLGEEFDETTADDRNCKSVVSLDGDKLVHIQKWDGKETNFVREIKDGKMVMTLTFGDVVAVRHYEKA", "values": [{"measurement": "binding result", "setting": "LifeAct-emFPv4", "value": "binds"}]}
{"binder": "B-FABP-SpyCatcher003 (other, also called B-FABP fused via SpyCatcher003) MVEAFCATWKLTNSQNFDEYMKALGVGFATRQVGNVTKPTVIISQEGDKVVIRTLSTFKNTEISFQLGEEFDETTADDRNCKSVVSLDGDKLVHIQKWDGKETNFVREIKDGKMVMTLTFGDVVAVRHYEKAPPPPRTGPPPPRVTTLSGLSGEQGPSGDMTTEEDSATHIKFSKRDEDGRELAGATMELRDSSGKTISTWISDGHVKDFYLYPGKYTFVETAAPDGYEVATPIEFTVNEDGQVTVDGEATEGDAHT", "values": [{"measurement": "binding result", "setting": "QtEnc-SpyTag(003) [2]", "value": "binds"}]}
{"binder": "BFabp-FLAG (other, Purified over the FLAG tag) VEAFCATWKLTNSQNFDEYMKALGVGFATRQVGNVTKPTVIISQEGDKVVIRTLSTFKNTEISFQLGEEFDETTADDRNCKSVVSLDGDKLVHIQKWDGKETNFVREIKDGKMVMTLTFGDVVAVRHYEKAGSGDYKDDDDK", "values": [{"measurement": "binding result", "setting": "[3]", "value": "binds"}]}
